Data set [1] addresses TRF1 (unmodified, His-tagged full length) (human, UniProt P54274 1-439). The data set can be described thus: EMSA; unmodified TRF1, 1 ug protein, 0.5 ng DNA; 20 mM Hepes pH 7.9, 100 mM NaCl, 50 mM KCl, 1 mM MgCl2, 0.1 mM EDTA, 1 mM DTT, 5% glycerol, 0.5 mg/ml BSA, 0.1% NP-40; 4 °C, 90 min; native 4.5% PAGE. Particulars: protein: recombinant; tags: His (pTrc-HisB); chain copies: 2; label: 32P 5' end label (T4 PNK); blunt.

Data set [2] addresses PARP1 (high specific activity) (human, UniProt P09874 1-1014). The data set can be described thus: EMSA; PARP1 alone, control from PARylation reaction; did not affect DNA migration; 20 mM Hepes pH 7.9, 100 mM NaCl, 50 mM KCl, 1 mM MgCl2, 0.1 mM EDTA, 1 mM DTT, 5% glycerol, 0.5 mg/ml BSA, 0.1% NP-40; 4 °C, 90 min; native 4.5% PAGE. Particulars: protein: commercial; label: 32P 5' end label (T4 PNK); blunt. (In EMSA bound probe runs differently from free probe, usually more slowly.)

Sequence of PARP1 (high specific activity) (P09874 whole entry): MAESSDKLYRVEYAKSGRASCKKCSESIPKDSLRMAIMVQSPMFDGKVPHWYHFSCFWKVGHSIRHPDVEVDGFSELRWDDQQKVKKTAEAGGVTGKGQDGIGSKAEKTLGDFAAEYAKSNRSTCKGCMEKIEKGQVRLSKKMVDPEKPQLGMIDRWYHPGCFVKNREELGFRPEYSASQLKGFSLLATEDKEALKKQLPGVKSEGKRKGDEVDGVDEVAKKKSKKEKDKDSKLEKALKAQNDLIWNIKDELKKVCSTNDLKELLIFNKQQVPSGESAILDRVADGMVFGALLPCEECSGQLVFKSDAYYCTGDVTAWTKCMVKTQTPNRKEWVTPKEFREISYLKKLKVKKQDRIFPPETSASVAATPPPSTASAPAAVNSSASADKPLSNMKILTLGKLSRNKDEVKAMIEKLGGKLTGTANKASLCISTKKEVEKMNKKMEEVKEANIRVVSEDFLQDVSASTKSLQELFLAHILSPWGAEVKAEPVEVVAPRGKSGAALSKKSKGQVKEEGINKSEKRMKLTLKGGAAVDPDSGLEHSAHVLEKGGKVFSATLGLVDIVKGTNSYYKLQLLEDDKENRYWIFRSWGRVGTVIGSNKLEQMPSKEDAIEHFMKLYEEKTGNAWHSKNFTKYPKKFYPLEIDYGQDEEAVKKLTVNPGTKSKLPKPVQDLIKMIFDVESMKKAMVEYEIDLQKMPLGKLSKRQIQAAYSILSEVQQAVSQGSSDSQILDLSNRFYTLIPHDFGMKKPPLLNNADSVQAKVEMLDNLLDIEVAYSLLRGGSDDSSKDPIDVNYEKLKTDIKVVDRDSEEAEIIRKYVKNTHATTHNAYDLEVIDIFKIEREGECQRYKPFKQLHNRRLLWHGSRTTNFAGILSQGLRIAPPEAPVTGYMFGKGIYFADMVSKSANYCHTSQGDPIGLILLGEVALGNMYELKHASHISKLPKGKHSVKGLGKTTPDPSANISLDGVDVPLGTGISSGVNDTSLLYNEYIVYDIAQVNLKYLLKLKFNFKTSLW
Sequence of TRF1 (unmodified, His-tagged full length) (P54274 whole entry): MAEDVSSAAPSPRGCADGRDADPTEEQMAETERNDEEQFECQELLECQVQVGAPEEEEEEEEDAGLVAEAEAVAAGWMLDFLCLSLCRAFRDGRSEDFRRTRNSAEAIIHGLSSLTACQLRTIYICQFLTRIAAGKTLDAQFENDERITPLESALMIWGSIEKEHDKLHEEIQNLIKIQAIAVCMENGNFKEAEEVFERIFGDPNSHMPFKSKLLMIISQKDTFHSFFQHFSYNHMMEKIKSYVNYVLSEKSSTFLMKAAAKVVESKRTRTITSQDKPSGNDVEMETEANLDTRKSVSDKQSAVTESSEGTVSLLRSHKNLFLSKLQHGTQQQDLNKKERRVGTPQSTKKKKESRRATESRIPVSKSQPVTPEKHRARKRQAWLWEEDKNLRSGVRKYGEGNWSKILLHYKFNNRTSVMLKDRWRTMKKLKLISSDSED

B1: telomeric duplex DNA (dsDNA)
DNA 1: GGGTTAGGGTTAGGGTTAGGGTTAGGGTTAGGGTTAGGGTTAGGGCCCCTC
DNA 2: GAGGGGCCCTAACCCTAACCCTAACCCTAACCCTAACCCTAACCCTAACCC
For the molecule B1, the values for the binding result in data set [1] and in data set [2] were “binds” and “no binding”, respectively.

(Values after article PMC9981704, “PARP1 allows proper telomere replication through TRF1 poly (ADP-ribosyl)ation and helicase recruitment”.)
